Laboratory results reported in PMC6925130, “Cleaved CD31 as a target for in vivo molecular imaging of inflammation” (Scientific Reports, 2019).
Non-standard residues stand in square brackets, D forms with d. Residues, ends and D or L forms follow the SMILES beside them. *: point of attachment. HYNIC = NNc1ccc(C(=O)*)cn1; PEG3 = NCCOCCOCCOCCC(=O)O

Experiments:
[1] = in vitro; type: in vitro ADME; settings: human, plasma
Experimental: Plasma stability was assessed in triplicate at 1, 2 and 4 h after incubation of the radiolabeled D-P8RI peptide (final concentration 100 pmol/mL) in human plasma at 37 °C with RCP ≥94%. After precipitation of plasma proteins with acetonitrile and centrifugation (15000 × g, 10 min), the supernatant was analyzed by RP-HPLC as described in Supplementary Data. Plasma stability was expressed in RCP (%).

[2] = in vivo; parameters: species or system male Wistar rats; settings: male, Wistar, rat, iv, 30 MBq, total radioactivity, Biodistribution
Experimental: Biodistribution of ^99mTc-HYNIC-D-P8RI was performed 15, 30, 90 min and 24 h post-injection. Animals (n = 3 for each time point) were injected intravenously through penis vein with 30 ± 3 MBq of ^99mTc-HYNIC-D-P8RI. They were sacrificed by isoflurane overdose and blood, heart, liver, thyroid, spleen, kidney, brain, intestine and muscle tissues were harvested and counted using a well counter. Results were expressed as the percentage of injected dose per gram of tissue (% ID/g). To characterize radiotracer elimination and potential degradation, rat urine was collected 90 min p.i, passed through a 0.22 µm PVDF filter (Durapore^TM 13 mm, Merck), and analyzed using RP-HPLC as described in Supplementary Data.

[3] = physchem; type: physicochemical; settings: pH 7.2
Experimental: 500 µL of^ 99mTc-HYNIC-D-P8RI in PBS (pH 7.2) was added to 500 µL of octanol in a 1.5 mL conical vial. After 15 min of vortexing, the vial was centrifuged at 5000xg for 3 min. A 100 µL aliquot of both phases was collected in triplicate and counted with a gamma counter then log P values were calculated.

[4] = in vitro; type: in vitro ADME; settings: human, plasma; remark: listed apart in the source
Experimental: Protein binding of the purified radiolabeled D-P8RI peptide (final concentration 100 pmol/mL) was determined in triplicate after 0, 0.5, 1, 2, 3 and 4 h of incubation in fresh human plasma (collected in citrate tubes) at 37 °C and analyzed after size exclusion chromatography (illustra Microspin G-50 Columns, Sephadex G-50, GE Healthcare, UK). Simultaneously, radiolabeled peptide was incubated in PBS at 37 °C as a control. G-50 columns were prespun at 2000 × g for 1 min then 20 μL of mixture was added and the column was centrifuged at 2000 × g for 2 min. Columns and eluates were counted on a Wallac Wizard 3″ 1480 (Perkin Elmer, MA, USA), then protein binding was calculated using the following activity (A) ratio: A eluate/(A column + A eluate).

[5] = tested on: turpentine injected hindlimb (sterile acute inflammation); test: SPECT/CT and PET/MRI imaging of turpentine oil-induced sterile acute inflammation; type: in vivo, male Wistar rats; settings: turpentine injected hindlimb / saline injected hindlimb; PET/MRI 1 h p.i., retro-orbital ≈20 MBq; n = 23
Experimental: Two to 3-month-old adult male Wistar rats, weighing 250–300 g were used. The animals were housed in a controlled environment. The procedures and animal care complied with the principles formulated by the National Society for Medical Research. All methods were performed in accordance with the guidelines of the French Directorate of Veterinary Services (authorization: No. 75-214). All methods were approved by the animal ethics committee of the Claude Bernard Institute (APAFIS #14821, Paris, France). Aseptic inflammation was obtained according to a standardized procedure consisting of turpentine oil injection characterized by a massive local influx of activated inflammatory cells[33],[34]. […]
Imaging procedures of ^99mTc-HYNIC-P8RI (D and L) were performed using Single Photon Emission Computed Tomography coupled to X-ray computed tomography (SPECT/CT). […] Reconstructed slices were visually assessed in 3 planes (axial, coronal, and sagittal). […]
Three-dimensional Regions of Interests (3D-ROIs) were placed on the inflammatory muscles and the mean signal per volume unit (kBq/mL) was measured. Assuming a tissue density of 1 g/mL, the radioactivity contained in the ROI was divided by the dose administered to the animal and the volume of the ROI to obtain an imaging ROI-derived % ID/g. […]

Structure (SMILES)	remaining at 1 h, 100 pmol/mL [1]	remaining at 2 h, 100 pmol/mL [1]	tissue uptake at 1.5 h ([2]; bladder)	tissue uptake at 0.25 h ([2]; blood)	tissue uptake at 24 h ([2]; blood)	tissue uptake at 1.5 h ([2]; kidney)	logD [3]	fraction unbound at 0 h, 100 pmol/mL [4]	fraction unbound at 0.5 h, 100 pmol/mL [4]	Mean signal ratio (TIH/SIH), PET/MRI [5]
CC(C)C[C@@H](NC(=O)[C@@H](C)NC(=O)[C@H]1CCCN1C(=O)[C@@H](Cc1c[nH]c2ccccc12)NC(=O)[C@@H](CCCCN)NC(=O)CCOCCOCCOCCNC(=O)c1ccc(NN)nc1)C(=O)N[C@H](Cc1ccccc1)C(=O)N[C@@H](C(=O)N[C@H](CCCNC(=N)N)C(=O)O)C(C)C [^99mTc-HYNIC-D-P8RI, metal not drawn] ({HYNIC-PEG3}-[dK][dW][dP][dA][dL][dF][dV][dR]-OH)	93.02 ± 0.04%	91.05 ± 0.02%	61.4 ± 13.4 %ID/g	9.74 ± 1.21 %ID/g	0.04 ± 0.02 %ID/g	14 ± 2.93 %ID/g	-2.92 ± 0.04	0.928	0.952	
O=C[C@H]([18F])[C@@H](O)[C@H](O)[C@H](O)CO [[^18F]FDG, 2-deoxy-2-[^18F]fluoro-D-glucose]										4.49 ± 0.43
